This note sets out measurements from EP4793641A1, “NOVEL METHOD FOR ANALYZING BIOMOLECULAR INTERACTIONS” (Kyoto University, priority 2023, dated 2025).

Non-standard residues stand in square brackets, D forms with d. Residues, ends and D or L forms follow the SMILES beside them. Primed or numbered codes have the meaning given here. No end group written: not given here. *: point of attachment. 5FAM = O=C1OC2(c3ccc(O)cc3Oc3cc(O)ccc32)c2ccc(C(=O)*)cc21; Me′ = methyl group capping the C-terminus; F(-Me) = not defined here; Mob = COc1ccc(C*)cc1; Bn = c1ccc(C*)cc1

One experiment addresses T1, interactions between Talin 1 (TLN1) and integrin subunit beta (ITGB) (Homo sapiens, UniProt Q9Y490).
T1 construct: LgBit or SmBit (N-terminal of the HaloTag); made in house
Briefly: Flip-flop detection mechanism on DNA origami (LgBit/SmBit luminescence), inhibitor screening. The class given is biochemical. The settings on record: inhibition of binding between TLN1 and ITBG. The source says: Two types of systems, i.e., flip-flop detection mechanism and switch detection mechanism, were constructed by using HaloTag, LgBit, SmBit, TLN1, and ITGB. Each of TLN1 (Uniprot ID: Q9Y490) and ITGB1 (Uniprot ID: P05556) was cloned from the registered genetic information. HaloTAg has three chemically modifiable locations at a ligand recognition site, C-terminus, and N-terminus. In this Example, a single-stranded DNA for attaching to DNA origami was connected to a ligand recognition site of HaloTag, a subunit of an interaction complex was connected to the C-terminus, and LgBit or SmBit was connected to the N-terminus.
The outline of the system is disclosed in Figure 23. When TLN1 and ITBG are in a bound state in this system, LgBit and SmBit are at spatially separated positions from each other, with a HaloTag interposed therebetween. In this regard, if an inhibitor is added, complex formation of TLN1 and ITBG is inhibited. As a result, a LgBit-SmBit complex can be formed, and a luminescence reaction progresses.
As a candidate drug for inhibiting the binding between TLN1 and ITBG, peptide inhibitors consisting of 13 amino acids prepared by modifying amino acids in an intracellular region of ITGB3 have been designed (Shen B. et al., A directional switch of integrin signaling and a new antithrombotic strategy. Nature 503, 131-135 (2013)). IC50 values for the peptides shown in the following table were calculated by using the flip-flop detection mechanism described in Example 11 for optimizing the sequence. In this manner, the effect of a large number of compounds on the interaction with a target protein can be readily analyzed in the system of the present disclosed.
In the case of `COc1ccc(CSC[C@H](NC(=O)[C@H](CC(N)=O)NC(=O)[C@H](CCSC)NC(=O)[C@H](CCCCN)NC(=O)[C@H](CCC(=O)O)NC(=O)[C@H](CCCCN)NC(=O)[C@H](CCC(=O)O)NC(=O)[C@H](Cc2ccccc2)NC(=O)[C@@H](N)CCCCN)C(=O)N[C@@H](CCCCN)C(=O)N[C@@H](Cc2c[nH]c3ccccc23)C(=O)N[C@@H](CCSC)C(=O)N[C@H](C(=O)O)[C@@H](C)O)cc1` [FIYM42] (H-KFEKEKMNC(Mob)KWMT-OH), the Inhibitory activity entry is on record as “no inhibition”. On to `CSCC[C@H](NC(=O)[C@H](CCCCN)NC(=O)[C@H](CCC(=O)O)NC(=O)[C@H](CCCCN)NC(=O)[C@H](CCC(=O)O)NC(=O)[C@H](Cc1ccccc1)NC(=O)[C@@H](N)CCCCN)C(=O)N[C@@H](CC(N)=O)C(=O)N[C@@H](CSCc1ccccc1)C(=O)N[C@@H](CCCCN)C(=O)N[C@@H](Cc1c[nH]c2ccccc12)C(=O)N[C@@H](CCSC)C(=O)N[C@H](C(=O)O)[C@@H](C)O` [FIYM43] (H-KFEKEKMNC(Bn)KWMT-OH), for which the Inhibitory activity result is “no inhibition”.

For `CSCC[C@H](NC(=O)[C@H](CCCCN)NC(=O)[C@H](CCC(=O)O)NC(=O)[C@H](CCCCN)NC(=O)[C@H](CCC(=O)O)NC(=O)[C@H](Cc1ccccc1)NC(=O)[C@H](CCCCN)NC(=O)[C@@H]1CCCN1)C(=O)N[C@@H](CC(N)=O)C(=O)N[C@@H](CS)C(=O)N[C@@H](CCCCN)C(=O)N[C@@H](Cc1c[nH]c2ccccc12)C(=O)N[C@@H](CCSC)C(=O)N[C@H](C(=O)O)[C@@H](C)O` [FIYM54] (H-PKFEKEKMNCKWMT-OH), the Inhibitory activity entry is reported as “no inhibition”. `CSCC[C@H](NC(=O)[C@H](CCCCN)NC(=O)[C@H](CCC(=O)O)NC(=O)[C@H](CCCCN)NC(=O)[C@H](CCC(=O)O)NC(=O)[C@H](Cc1ccccc1)NC(=O)[C@H](CCCCN)NC(=O)[C@@H]1CCCN1C(=O)CN)C(=O)N[C@@H](CC(N)=O)C(=O)N[C@@H](CS)C(=O)N[C@@H](CCCCN)C(=O)N[C@@H](Cc1c[nH]c2ccccc12)C(=O)N[C@@H](CCSC)C(=O)N[C@H](C(=O)O)[C@@H](C)O` [FIYM55] (H-GPKFEKEKMNCKWMT-OH): the Inhibitory activity result is listed as “no inhibition”. As to `CC[C@H](C)[C@H](NC(=O)[C@@H]1CCCN1C(=O)[C@H](CC(N)=O)NC(=O)[C@H](CCC(=O)O)NC(=O)[C@H](CCC(N)=O)NC(=O)[C@@H](NC(=O)[C@@H](NC(=O)[C@H](CCCNC(=N)N)NC(=O)[C@H](Cc1c[nH]c2ccccc12)NC(=O)[C@H](CCCCN)NC(=O)[C@H](CS)NC(=O)[C@H](CC(N)=O)NC(=O)[C@H](CCSC)NC(=O)[C@H](CCCCN)NC(=O)[C@H](CCC(=O)O)NC(=O)[C@H](CCCCN)NC(=O)[C@H](CCC(=O)O)NC(=O)[C@H](Cc1ccccc1)NC(=O)[C@@H](N)CCCCN)C(C)C)[C@@H](C)O)C(=O)N[C@@H](Cc1ccc(O)cc1)C(=O)N[C@@H](CCCCN)C(=O)O` [FIYM56] (H-KFEKEKMNCKWRVTQENPIYK-OH), the Inhibitory activity result is “no inhibition”.

For “KF(-CI)EKEKMNCKWMT (KFEKEKMNCKWMT) [FIYM18]”, the Inhibitory activity result is on record as “no inhibition”.

The same experiment, now with this note: inhibition of binding between TLN1 and ITBG, read-out: Inhibitory activity.
On to `C[C@H](NC(=O)[C@H](CCCNC(=N)N)NC(=O)[C@H](C)NC(=O)[C@H](CCCNC(=N)N)NC(=O)[C@H](CCC(=O)O)NC(=O)[C@H](CCC(=O)O)NC(=O)[C@H](CCC(=O)O)NC(=O)[C@H](Cc1ccccc1)NC(=O)[C@@H](N)CCCCN)C(=O)N[C@@H](CCCCN)C(=O)N[C@@H](Cc1c[nH]c2ccccc12)C(=O)N[C@@H](CC(=O)O)C(=O)N[C@H](C(=O)O)[C@@H](C)O` [FIYM45] (H-KFEEERARAKWDT-OH), for which the IC50 was determined as 314 µM. Regarding `CSCC[C@H](NC(=O)[C@H](C)NC(=O)[C@H](CCCCN)NC(=O)[C@H](CS)NC(=O)[C@H](CC(N)=O)NC(=O)[C@H](CCSC)NC(=O)[C@H](CCCCN)NC(=O)[C@H](CCC(=O)O)NC(=O)[C@H](CCCCN)NC(=O)[C@H](CCC(=O)O)NC(=O)[C@H](C)NC(=O)[C@@H](N)CCCCN)C(=O)N[C@H](C(=O)O)[C@@H](C)O` [FIYM46] (H-KAEKEKMNCKAMT-OH), the IC50 was found to be 474 µM.

With “Ace-KFEKEKMNCKWMT-Me (Ace-KFEKEKMNCKWMT-{Me′}) [FIYM15]”, the IC50 worked out at 41.2 µM. Consider “KF(-Me)EKEKMNCKWMT (KFEKEKMNCKWMT) [FIYM19]”, for which the IC50 worked out at 212 µM.

The experiment is the same for the next values; noted with them: inhibition of binding between TLN1 and ITBG, µM, read-out: Inhibitory activity.
With `CSCC[C@H](NC(=O)[C@H](CCCCN)NC(=O)[C@H](CCC(=O)O)NC(=O)[C@H](CCCCN)NC(=O)[C@H](CCC(=O)O)NC(=O)[C@H](Cc1ccccc1)NC(=O)[C@@H](N)CCSC)C(=O)N[C@@H](CC(N)=O)C(=O)N[C@@H](CS)C(=O)N[C@@H](CCCCN)C(=O)N[C@@H](Cc1c[nH]c2ccccc12)C(=O)N[C@@H](CCSC)C(=O)N[C@H](C(=O)O)[C@@H](C)O` [FIYM47] (H-MFEKEKMNCKWMT-OH), the IC50 worked out at 71.4 µM. Consider `CSCC[C@H](NC(=O)[C@H](CCCCN)NC(=O)[C@H](CCC(=O)O)NC(=O)[C@H](CCCCN)NC(=O)[C@H](CCC(=O)O)NC(=O)[C@H](Cc1ccccc1)NC(=O)[C@H](CCCCN)NC(=O)[C@@H](N)CCSC)C(=O)N[C@@H](CC(N)=O)C(=O)N[C@@H](CS)C(=O)N[C@@H](CCCCN)C(=O)N[C@@H](Cc1c[nH]c2ccccc12)C(=O)N[C@@H](CCSC)C(=O)N[C@H](C(=O)O)[C@@H](C)O` [FIYM48] (H-MKFEKEKMNCKWMT-OH), for which the IC50 is 292 µM. Consider `CSCC[C@H](NC(=O)[C@H](CCCCN)NC(=O)[C@H](CCC(=O)O)NC(=O)[C@H](CCCCN)NC(=O)[C@H](CCC(=O)O)NC(=O)[C@H](Cc1ccccc1)NC(=O)[C@H](CCCCN)NC(=O)[C@H](Cc1c[nH]cn1)NC(=O)[C@H](Cc1c[nH]cn1)NC(=O)[C@H](Cc1c[nH]cn1)NC(=O)[C@H](Cc1c[nH]cn1)NC(=O)[C@H](Cc1c[nH]cn1)NC(=O)[C@H](Cc1c[nH]cn1)NC(=O)[C@@H](N)CCSC)C(=O)N[C@@H](CC(N)=O)C(=O)N[C@@H](CS)C(=O)N[C@@H](CCCCN)C(=O)N[C@@H](Cc1c[nH]c2ccccc12)C(=O)N[C@@H](CCSC)C(=O)N[C@H](C(=O)O)[C@@H](C)O` [FIYM49] (H-MHHHHHHKFEKEKMNCKWMT-OH), for which the IC50 turned out to be 107 µM.

The next experiment deals with Talin 1 (TLN1) (UniProt Q9Y490). The experiment can be described thus: flip-flop luminescence detection on DNA origami, inhibition of the TLN1-ITGB complex.
Sequence of Talin 1 (TLN1) (Q9Y490 1-405): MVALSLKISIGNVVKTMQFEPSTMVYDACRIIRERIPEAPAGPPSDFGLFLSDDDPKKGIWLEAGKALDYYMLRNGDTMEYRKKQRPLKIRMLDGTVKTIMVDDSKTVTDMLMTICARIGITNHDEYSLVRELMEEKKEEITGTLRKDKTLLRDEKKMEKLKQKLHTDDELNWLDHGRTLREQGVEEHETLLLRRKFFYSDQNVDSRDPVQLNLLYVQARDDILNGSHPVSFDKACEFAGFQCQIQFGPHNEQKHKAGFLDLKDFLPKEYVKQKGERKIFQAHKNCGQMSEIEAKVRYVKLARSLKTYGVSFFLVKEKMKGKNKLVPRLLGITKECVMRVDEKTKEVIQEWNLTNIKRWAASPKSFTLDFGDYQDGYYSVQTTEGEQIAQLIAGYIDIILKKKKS
Details: not given
Molecule KYEKEKMNCKWMT [FIYM51] registered an IC50 of 1830 µM.

For the molecule RFEKEKMMCKWMT [FIYM31], the IC50 was 1040 µM. In the case of 5FAM-KFEKEKMNCKWMT [FIYM21], the IC50 came out at 38.1 µM. Molecule K[F(-Me)]EKEKMNCKWMT (reading uncertain; also: printed as KF(-Me)EKEKMNCKWMT) [FIYM19] returned an IC50 of 212 µM. In turn, EFEKEKMNCKWMT [FIYM53] registered an IC50 of 42000 µM.

In turn, KFEKEKMNC(Me)KWMT [FIYM44] gave an IC50 of 1070 µM. DFEKEKMNCKWMT [FIYM52]: the IC50 is 8130 µM. Turning to Ace-KFEKEKMNCKWMT-{Me′} [FIYM15], the IC50 was determined as 41.2 µM.

Regarding KYEKEKMNAKWDT [FIYM50], the IC50 turned out to be 1860 µM.
